Experimental data from the nanobody polyreactivity screen of Harvey et al. (2022).

experiment: yeast display, Sf9 membrane polyspecificity reagent, FACS + sequencing; frameworks hold sequencing errors
Outline: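 Galactose induction of a Saccharomyces cerevisiae BJ5465 synthetic nanobody display library ran 36–48 hours. The cells were then stained for 1 hour at 4 °C with 10% biotinylated, detergent-solubilized Sf9 membrane reagent, pulled down on streptavidin microbeads and FACS-sorted into low and high (top ~1%) gates on expression and reagent-binding fluorescence. Labels for polyreactivity follow the gate of origin.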

Row | Sequence | polyreactivity (PSR sort gate)
1 | QVQLVESGGGLVQAGGTRRLSCAASGSIFYYYAMGWYRQAPGKERELVAAINRGVGSTFYADSVKGRFTISRDNAKNTVYLQMNSLKPEDTAVYYCAVELNQVTPGLGYITLDYWGQGTQVTVSS | low polyreactivity
2 | QVQLVESGGGLVQAGLTLRLSCAASGRIFYPYAMVWYRQAPGKERELVAYNTRSGGSTRYADSVKGRFTISRDNAKNTLYLQMNSLITEDTAVDYCAARTWGRRSSSWGGYYWGQGTQVTVSS | high polyreactivity
3 | QVQLVESGGGLVQAGRNLRLSCAASGRTFYNNVMGWYRQAPGKERELVAAIDWNDGSTYYADSVKGRFTISRDKAKNTVFLQMNSLKPEDTAVYYCAADAYGYGGDSWGQGTQVTVSS | low polyreactivity
4 | QVQLVESGGGLVQAGRSHRLSCAASGIIFYKYAMGWYRQAPVKERELVAAISGTGGSTYYADSVKGRFTISRDNAKNTVYLQMNSVTAEDPAVYYCAATHYSFSWGYDYWGQGTQGTVSS | high polyreactivity
5 | QVQLVESGGGLVQAGRSIRLSCAASGSTFAKYAMGWYRQAPAKERELVAAISSSGSRTYYADSVKGRFTISRDYAKNTVYLQMNILKTEDTAVYYCAALIVKPGGRVYYGGQGTQVTVSS | high polyreactivity
6 | QVQLVESGGGLVQAGRSLRLICAASGRTFVYYAMGWYRPAPGKERELVAAITWSGGRTYYADSVKGRFTISRDNAKNTVYLQMNSLKQEDTAVYYCNRDQWPWESGYAYNYWGQGTQVTVSS | low polyreactivity
7 | QVQLVESGGGLVQAGRSLRLLSAASGSSIYFNGMGWYRQAPGKERELVAAITSGGSTDYADSVKGRFTISRDNEKNSVYLLMYSLKPEDTAVYYCNVQNGDRQITGYDYWGLGTQVTVSS | low polyreactivity
8 | QVQLVESGGGLVQAGRSLRLSCAASGFPFYQYAMGWYRQAPGQERELVAAITWSRGDTYYADSVKGRFTISRDNAKNTVYLQMNSLKPEDSAVFNCNADDRPRGPYYDSFDYRGDYWGQGTQVTVSS | low polyreactivity
9 | QVQLVESGGGLVQAGRSLRLSCAASGLIFVNYAMGWYRPAPGHERELVAASTRSGGRTYYADSVKGRFTISRDNAKNRRYLHMNSLKPVDTAVYYCAAYVRSATLRVNYGYWGQGTQVTVSS | high polyreactivity
10 | QVQLVESGGGLVQAGRSLRLSCAASGLISRRNAMGWYRQAPGKQRELVAAISTGSSTNYADSVKGRFTISRDNAKNTVYLQMNSLKPEDTAVYYCASTQYWWSTLGIRDDYWGQGTQVTVSS | low polyreactivity
11 | QVQLVESGGGLVQAGRSLRLSCAASGLTFKWYAMGWYRQAPGKERELVAAISRDGSTYYADSVKGRFTISRDNAKNTVYLQMNSLKPEDTAVYDCAADIWPSSLLADEYDYWGQGTQVTVSS | high polyreactivity
12 | QVQLVESGGGLVQAGRSLRLSCAASGRIFGWYAMGWYRQAPGKERELVAAIRWSGGSTYADSVKGRFTISRDNAKNTVYLQMNSLKPEDTAVYYCAALQRTGPYAGSSGYWGQGTQVTVSS | high polyreactivity
13 | QVQLVESGGGLVQAGRSLRLSCAASGRIFKYNAMGWYRQAPGKERELVAVITSGGSTYYADSEKGRFTISRDNAMNTDSLQKNSLKQVDTAVYYCNSPYARYYTRYSAYDYWGQGTQVTVSS | low polyreactivity
14 | QVQLVESGGGLVQAGRSLRLSCAASGRIFRVNAMGWYRQAPRKERQLVAAISVRGGSTYYADSVKGRFTISRDNAKNTVYLQMNSLKPEDTAVYYCAAPLVYFTPRYDYWGQGTQVTVSS | high polyreactivity
15 | QVQLVESGGGLVQAGRSLRLSCAASGRIFYPYAMGWYRQAPGKERELVAAIRWSSGNTRYADSVKGRFTISRDNAKNTVYLQMNSLKPEDTAVYYCAADTTVFFYRYDYWGQGTQVTVSS | high polyreactivity
16 | QVQLVESGGGLVQAGRSLRLSCAASGSIFTYYAMGWYRQGPGQERELVAAINWSGGGTYYADSLKGRFTISRDNAKINVYLQMNSLKPEDTAVYYCNALRKTYRLDYWGQGTQVTLSS | high polyreactivity
17 | QVQLVESGGGLVQAGRSLRLSCAASGSTFGSNAMGWYRLAPGKERELVAAITRRGGSTYYADSEKGRFTISRDNAKNTVYLQMNSLKPEDTAVYYCAAQIHPRRDYSAFDYWGQGTQVTVSS | low polyreactivity
